From patent publication US20190091296

Columns and labels:
[1] = biological target: Comparator: GLP1 analogue having the amino acid sequence characteristics of LY2189265 fused to hIgG4 Fc domain
Comparator: GLP1 analogue having the amino acid sequence characteristics of LY2189265 fused to hIgG4 Fc domain, sequence (chain, as listed by the source): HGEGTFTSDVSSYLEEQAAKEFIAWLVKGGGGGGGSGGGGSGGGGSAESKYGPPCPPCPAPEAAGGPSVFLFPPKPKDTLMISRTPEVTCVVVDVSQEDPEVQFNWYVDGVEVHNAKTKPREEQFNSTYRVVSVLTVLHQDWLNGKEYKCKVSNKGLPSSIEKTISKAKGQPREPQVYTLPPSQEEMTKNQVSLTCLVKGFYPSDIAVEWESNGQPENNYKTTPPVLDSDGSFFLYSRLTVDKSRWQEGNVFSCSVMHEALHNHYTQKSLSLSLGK

B1: recombinant human DPP4 (protein)
chain: SRKTYTLTDYLKNTYRLKLYSLRWISDHEYLYKQENNILVFNAEYGNSSVFLENSTFDEFGHSINDYSISPDGQFILLEYNYVKQWRHSYTASYDIYDLNKRQLITEERIPNNTQWVTWSPVGHKLAYVWNNDIYVKIEPNLPSYRITWTGKEDIIYNGITDWVYEEEVFSAYSALWWSPNGTFLAYAQFNDTEVPLIEYSFYSDESLQYPKTVRVPYPKAGAVNPTVKFFVVNTDSLSSVTNATSIQITAPASMLIGDHYLCDVTWATQERISLQWLRRIQNYSVMDICDYDESSGRWNCLVARQHIEMSTTGWVGRFRPSEPHFTLDGNSFYKIISNEEGYRHICYFQIDKKDCTFITKGTWEVIGIEALTSDYLYYISNEYKGMPGGRNLYKIQLSDYTKVTCLSCELNPERCQYYSVSFSKEAKYYQLRCSGPGLPLYTLHSSVNDKGLRVLEDNSALDKMLQNVQMPSKKLDFIILNETKFWYQMILPPHFDKSKKYPLLLDVYAGPCSQKADTVFRLNWATYLASTENIIVASFDGRGSGYQGDKIMHAINRRLGTFEVEDQIEAARQFSKMGFVDNKRIAIWGWSYGGYVTSMVLGSGSGVFKCGIAVAPVSRWEYYDSVYTERYMGLPTPEDNLDHYRNSTVMSRAENFKQVEYLLIHGTADDNVHFQQSAQISKALVDVGVDFQAMWYTDEDHGIASSTAHQHIYTHMSHFIKQCFSLP
Cleavage % after 4 hours [1]: 4% | Cleavage % after 72 hours [1]: 41% | Cleavage % after 4 hours (Q-GLP1-hFc): 0% | Cleavage % after 72 hours (Q-GLP1-hFc): 0%
